Data taken from patent US20240240209A1, “SYNTHESIS OF ENANTIOPURE CIS-A-IRONE FROM A RENEWABLE CARBON SOURCE” (Agency for Science, Technology and Research, priority 2021, published 2024).

Assay: Cell lysate reaction of pMT enzymes with psi-ionone, irones quantified by HS-SPME-GCMS
Format: biochemical
Settings: for fold change in cis-α-irone produced: AUC vs non-mutated (=1)
Outline: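 pMT1 site-saturation mutants were expressed in E. coli BL21(DE3) and lysed, and lysates were incubated 2 days at 28 °C with 0.2 mM SAM and 10 mg/L psi-ionone (plus caryophyllene) in 50 mM Tris pH 7, 10 mM MgCl2. Cis-α-irone was measured by HS-SPME-GCMS peak area and given as fold change over non-mutated enzyme.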

B1: pMT7: pMT1 with Y200F S182E L273V L180A A202L Y65F (protein)
chain: MPQEARTPQQQVTADEVGDWYDKFGEVYHLTLGESVHCGLWFPPDAPVPQDMELVTMSSQAQDRFTDYLIETLDPKAGQHLLDIGCGTGRTALKAARQRGIAVTGVAVSKEQIAAANRLAAGHGLTERLTFEVADAMRLPYEDESFDCAWAIESLCHMDRAKALGEAWRVLKPGGDLLVAEEVVTEELTEPETALFETLFALNVPPRLGEFFDIVSGAGFHTLSLKDLSANLAMTMNVFALGVYSRRAEFTERFGAEFVDGLLAGLGSAQETVIRKTRFFMATLRKPAV
modifications: Modified from pMT1
notes: pMT1 with Y200F S182E L273V L180A A202L Y65F
With B1 the cis-α-irone production (higher as compared to pMT1) was 2,450 fold, the “fold change in cis-α-irone produced” value (pMT6_Y65 mutants) was 1.4 and the “fold change in cis-α-irone produced” value (pMT7_T91 mutants) was 1.0. The “improvement of total turnover number (TTN)” value (vs pMT1, TTN = cis-α-irone produced / soluble pMT enzyme) was 2,000 fold.
